Measured values: US8361765B2, “Enzymic method for the enantioselective reduction of keto compounds” (IEP GmbH, priority 2001, dated 2013)

What was measured:
Type in all cases: biochemical, Lactobacillus minor
[1] = pH optimum of the enzymic reaction; details: 30° C.
Procedure: As in the standard assay, the concentration of ethyl 4-chloro-3-oxo-butanoate and of NADPH was 10 mM and 0.19 mM, respectively. The reaction was determined at 30° C.

[2] = Enzyme obtainment and purification: activity of crude extract and purified enzyme; details: for volume activity: 25° C.
Procedure: The enzyme was obtained by culturing the strain with the highest enzymic activity in a fermenter (fed batch, 10 l) and inducing it at 40 OD500 with 1 mM IPTG. After 18 h, the cells were harvested, taking up 300 g of cells in 3 l of Kpi buffer (50 mM, pH=7, 1 mM MgCl2) and disrupted subsequently by means of a French press (Gaullin, Siemens).
To characterize the enzyme, a portion of the enzyme obtained was purified by means of […] chromatography on Q-Sepharose ff (fast flow). For this purpose, the column used was equilibrated with 50 mM Kpi buffer pH=7.0, 1 mM MgCl2. After application of the crude extract to the column and brief washing with equilibration buffer, the enzyme was eluted with an increasing linear salt gradient (0-1M NaCl, 1 ml/min) at a salt concentration of about 0.3 M NaCl. […] The enzyme purified in this way thus has a specific activity of approximately 35 to 40 U/mg of protein.
All enzymic activities were determined at 25° C. The enzyme activity was calculated as follows: • Calculation: 1 unit=conversion of 1 μmol of substrate per min • Lambert-Beer law • NADPH decrease was monitored at 340 nm (see enzymic assay mixture)=ΔE/min • N=enzyme dilution factor • V=enzyme volume in ml (0.01) • Vcuvette=cuvette volume=1 ml • d=cuvette light path=1 cm • eNADPH NADPH extinction coefficient=6.22 [mM^−1*cm^−1] • Activity=(ΔE/min*N*Vcuvette)/(eNADPH*V*d)
Protein determination was carried out according to Bradford (Bio-Rad Laboratories GmbH, Protein Assay).

[3] = Temperature stability of L. minor alcohol dehydrogenase; details: for temperature up to which the enzyme is stable: 30 min incubation; for Activity in % (n = 4): measured at 30° C.
Procedure: The temperature stability for the range from 25° C. to 50° C. was determined similarly to the manner described in A.). For this purpose, in each case a 1:100 dilution of the purified enzyme was incubated at the particular temperature for 30 min and then measured at 30° C. using the above assay procedure. Here too, the starting value used was the measured value obtained immediately after diluting the enzyme in triethanolamine buffer 50 mM pH=7.0. This value was also set here as 100% value. L. minor alcohol dehydrogenase is stable up to a temperature of 40° C. Thereafter, the activity rapidly declines.

[4] = test system: L. minor alcohol dehydrogenase; test: Enzyme stability under process conditions; details: for several days
Procedure: The stability of the enzyme under process conditions was studied by diluting L. minor alcohol dehydrogenase 1:100 with the solvent mixtures used in the two-phase system, followed by incubation at room temperature. 10 μl of the enzyme solution were then used in the standard assay mixture. Table 8 depicts the enzyme activities as a % of the starting value.

[5] = pH stability of cloned L. minor alcohol dehydrogenase
Procedure: The activity of the enzyme as a function of storage in buffers with different pH values in the range from pH 4 to 11 was studied. For this purpose, various buffers (50 mM) in the range from pH 4 to 11 were prepared and the enzyme purified in Example 2 was diluted 1:100 therein and incubated for 30 min. All buffers contained 1 mM MgCl2. 10 μl of this were then used in the normal enzyme assay (triethanolamine buffer 100 mM pH=7.0, 1 mM MgCl2, 10 mM ethyl 4-chloro-3-oxo-butanoate and 0.19 mM NADPH). The reaction was monitored at 30° C. and 340 nm for 1 min.
The starting value here is the measured value obtained immediately after diluting the enzyme in triethanolamine buffer 50 mM pH=7.0. Under predefined conditions, this value corresponded to a change in extinction of 0.20/min and was set as 100% value, with all subsequent measured values being related to this value.

[6] = Temperature optimum of the enzymic reaction
Procedure: The optimal assay temperature was determined by measuring the enzyme activity from 25° C. to 60° C. The assay mixture corresponded to the standard concentration of ethyl 4-chloro-3-oxo-butanoate and NADPH.

[7] = crude extract after fermentation and French press

B1: L. minor alcohol dehydrogenase: R-specific alcohol dehydrogenase from Lactobacillus minor, SEQ ID NO: 4, overexpressed in Escherichia coli RB 791 (protein, listed as Lactobacillus sp.)
chain: MRGSHHHHHHGSMTDRLKGKVAIVTGGTLGIGLAIADKFVEEGAKVVITGRHADVGEKAARSIGGTDVIRFVQHDASDETGWTKLFDTTEEAFGPVTTVVNNAGIAVSKSVEDTTTEEWRKLLSVNLDGVFFGTRLGIQRMKNKGLGASIINMSSIEGEVGDPALGAYNASKGAVRIMSKSAALDCALKDYDVRVNTVHPGYIKTPLVDDLEGAEEMMSQRTKTPMGHIGEPNDIAWICVYLASDESKFATGAEFVVDGGYTAQ
[1]; assay at pH 4, sodium acetate/acetic acid
  Activity in U/ml of undiluted enzyme: 85 U/ml
[1]; assay at pH 4.5, sodium acetate/acetic acid
  Activity in U/ml of undiluted enzyme: 132 U/ml
[1]; assay at pH 5, MES/NaOH
  Activity in U/ml of undiluted enzyme: 218 U/ml
[1]; assay at pH 5.5, MES/NaOH
  Activity in U/ml of undiluted enzyme: 240 U/ml
[1]; assay at pH 6, triethanolamine/NaOH
  Activity in U/ml of undiluted enzyme: 381 U/ml
[1]; assay at pH 6.5, triethanolamine/NaOH
  Activity in U/ml of undiluted enzyme: 349 U/ml
[1]; assay at pH 7, triethanolamine/NaOH
  Activity in U/ml of undiluted enzyme: 510 U/ml
[1]; assay at pH 7.5, tris/HCl
  Activity in U/ml of undiluted enzyme: 707 U/ml
[1]; assay at pH 8, tris/HCl
  Activity in U/ml of undiluted enzyme: 585 U/ml
[1]; assay at pH 8.5, tris/HCl
  Activity in U/ml of undiluted enzyme: 486 U/ml
[1]; assay at pH 9, tris/HCl
  Activity in U/ml of undiluted enzyme: 488 U/ml
[1]; assay at pH 10, glycine/NaOH
  Activity in U/ml of undiluted enzyme: 131 U/ml
[1]; assay at pH 11, glycine/NaOH
  Activity in U/ml of undiluted enzyme: 0 U/ml
[2]; [7]
  activity per wet mass: 20 000 U/g of wet mass
  volume activity: approximately 2000 U/ml
[2]; overexpressed in Escherichia coli RB 791
  activity per wet mass on overexpression in Escherichia coli: 20 000 units/g of wet mass
[2]; purified enzyme, Q-Sepharose ff
  volume activity: about 800 U/ml
[3]
  temperature up to which the enzyme is stable: ≤ 40 °C
[3]; listed as Lactobacillus minor alcohol dehydrogenase
  temperature up to which the enzyme is stable: about 40 °C
[3]; after 30 min at 25° C.
  Activity in % (n = 4): 101 ± 3.2%
[3]; after 30 min at 30° C.
  Activity in % (n = 4): 81.2 ± 5.8%
[3]; after 30 min at 35° C.
  Activity in % (n = 4): 67.0 ± 1.6%
[3]; after 30 min at 37° C.
  Activity in % (n = 4): 20.2 ± 2.4%
[3]; after 30 min at 40° C.
  Activity in % (n = 4): 33.4 ± 3.8%
[3]; after 30 min at 42° C.
  Activity in % (n = 4): 0 ± 0%
[3]; after 30 min at 45° C.
  Activity in % (n = 4): 0 ± 0%
[3]; after 30 min at 50° C.
  Activity in % (n = 4): 0 ± 0%
[4]
  stability in the combination of solvents used in the two-phase system (in words): stable and active
[5]; after 30 min at pH 4, sodium acetate/acetic acid 50 mM, 100% = value directly after dilution
  Activity in % (n = 2): 87.5 ± 6.5%
[5]; after 30 min at pH 4.5, sodium acetate/acetic acid 50 mM
  Activity in % (n = 2): 94.5 ± 3.0%
[5]; after 30 min at pH 5, MES/NaOH 50 mM
  Activity in % (n = 2): 55 ± 5%
[5]; after 30 min at pH 5, sodium acetate/acetic acid 50 mM
  Activity in % (n = 2): 94.5 ± 1.5%
[5]; after 30 min at pH 5.5, KH2PO4/K2PO4 50 mM
  Activity in % (n = 2): 96 ± 3%
[5]; after 30 min at pH 5.5, MES/NaOH 50 mM
  Activity in % (n = 2): 77.1 ± 2.1%
[5]; after 30 min at pH 6, KH2PO4/K2PO4 50 mM
  Activity in % (n = 2): 100 ± 0%
[5]; after 30 min at pH 6, triethanolamine/NaOH 50 mM
  Activity in % (n = 2): 100 ± 0%
[5]; after 30 min at pH 6.5, KH2PO4/K2PO4 50 mM
  Activity in % (n = 2): 97.5 ± 2.5%
[5]; after 30 min at pH 6.5, triethanolamine/NaOH 50 mM
  Activity in % (n = 2): 100 ± 0%
[5]; after 30 min at pH 7, KH2PO4/K2PO4 50 mM
  Activity in % (n = 2): 100 ± 0%
[5]; after 30 min at pH 7, triethanolamine/NaOH 50 mM
  Activity in % (n = 2): 97.9 ± 2.1%
[5]; after 30 min at pH 7.5, KH2PO4/K2PO4 50 mM
  Activity in % (n = 2): 97.5 ± 7.5%
[5]; after 30 min at pH 7.5, tris/HCl 50 mM
  Activity in % (n = 2): 94.6 ± 1.3%
[5]; after 30 min at pH 8, KH2PO4/K2PO4 50 mM
  Activity in % (n = 2): 93.0 ± 3.0%
[5]; after 30 min at pH 8, tris/HCl 50 mM
  Activity in % (n = 2): 89.2 ± 0%
[5]; after 30 min at pH 8.5, KH2PO4/K2PO4 50 mM
  Activity in % (n = 2): 102.5 ± 2.5%
[5]; after 30 min at pH 8.5, tris/HCl 50 mM
  Activity in % (n = 2): 60 ± 4.2%
[5]; after 30 min at pH 9, glycine/NaOH 50 mM
  Activity in % (n = 2): 76.5 ± 1.5%
[5]; after 30 min at pH 9, tris/HCl 50 mM
  Activity in % (n = 2): 63.1 ± 4.8%
[5]; after 30 min at pH 9.5, glycine/NaOH 50 mM
  Activity in % (n = 2): 52.5 ± 7.5%
[5]; after 30 min at pH 10, glycine/NaOH 50 mM
  Activity in % (n = 2): 52.5 ± 7.5%
[5]; after 30 min at pH 11, glycine/NaOH 50 mM
  Activity in % (n = 2): 0.0 ± 0%
[6]; assay temperature 25° C.
  Activity in U/ml of undiluted enzyme: 540 U/ml
[6]; assay temperature 30° C.
  Activity in U/ml of undiluted enzyme: 1235 U/ml
[6]; assay temperature 35° C.
  Activity in U/ml of undiluted enzyme: 1968 U/ml
[6]; assay temperature 40° C.
  Activity in U/ml of undiluted enzyme: 1621 U/ml
[6]; assay temperature 45° C.
  Activity in U/ml of undiluted enzyme: 2469 U/ml
[6]; assay temperature 50° C.
  Activity in U/ml of undiluted enzyme: 2469 U/ml
[6]; assay temperature 55° C.
  Activity in U/ml of undiluted enzyme: 2855 U/ml
[6]; assay temperature 60° C.
  Activity in U/ml of undiluted enzyme: 0 U/ml
